Where two headings read alike, the source gives them in different places.
Experiments:
[1] = target: human PD-L1 (full length, on cells) (human), Q9NZQ7; assay: flow cytometry on PC3 cells, PE anti-human IgG secondary, MFI (PE)
[2] = target: human PD-L1 (full length, on cells) (human), Q9NZQ7
[3] = target: cynomolgus monkey PD-L1 (full length, on CHO cells) (cynomolgus monkey (Macaca fascicularis)), G7PSE7; assay: flow cytometry on CHO cells transfected with cynomolgus PD-L1, PE anti-human IgG secondary, MFI (PE)
[4] = target: human PD-L1 (full length, on cells) (human), Q9NZQ7; assay: flow cytometry on SK-MES-1 cells, PE anti-human IgG secondary, MFI (PE)
[5] = target: human PD-L1 (full length, on cells) (human), Q9NZQ7; assay: flow cytometry on MDA-MB-231 cells, PE anti-human IgG secondary, MFI (PE)

Chain of human PD-L1 (full length, on cells) (human), Q9NZQ7 (Q9NZQ7 19-290 limits assumed): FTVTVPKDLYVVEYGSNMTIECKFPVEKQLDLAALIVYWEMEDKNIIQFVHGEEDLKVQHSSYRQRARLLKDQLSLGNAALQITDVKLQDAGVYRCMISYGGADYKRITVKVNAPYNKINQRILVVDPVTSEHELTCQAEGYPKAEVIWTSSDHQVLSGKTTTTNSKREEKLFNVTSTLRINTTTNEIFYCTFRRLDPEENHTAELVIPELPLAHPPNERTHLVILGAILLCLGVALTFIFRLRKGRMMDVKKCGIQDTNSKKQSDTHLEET
Chain of cynomolgus monkey PD-L1 (full length, on CHO cells) (cynomolgus monkey (Macaca fascicularis)), G7PSE7 (G7PSE7 entry or part of it): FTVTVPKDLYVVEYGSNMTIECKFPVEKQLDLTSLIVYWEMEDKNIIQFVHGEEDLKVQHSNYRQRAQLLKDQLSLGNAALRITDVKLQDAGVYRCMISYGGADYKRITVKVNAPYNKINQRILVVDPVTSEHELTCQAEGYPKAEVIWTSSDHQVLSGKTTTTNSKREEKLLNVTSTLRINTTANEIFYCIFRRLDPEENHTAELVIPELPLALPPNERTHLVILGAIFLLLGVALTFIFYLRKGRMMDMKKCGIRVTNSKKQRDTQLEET

EC50 (read off the curve) [1]: 0.05 µg/mL | EC50 (read off the curve) [2]: 0.1 µg/mL | EC50 (read off the curve) [3]: 0.2 µg/mL | EC50 (read off the curve) [4]: 0.2 µg/mL | EC50 (read off the curve) [5]: 0.06 µg/mL
B1: bsIgG1-b12-FEAL×547-FEAR (bispecific antibody, not shown: another chain or arm of the molecule)
heavy: EVQLLEPGGGLVQPGGSLRLSCEASGSTFSTYAMSWVRQAPGKGLEWVSGFSGSGGFTFYADSVRGRFTISRDSSKNTLFLQMSSLRAEDTAVYYCAIPARGYNYGSFQHWGQGTLVTVSSASTKGPSVFPLAPSSKSTSGGTAALGCLVKDYFPEPVTVSWNSGALTSGVHTFPAVLQSSGLYSLSSVVTVPSSSLGTQTYICNVNHKPSNTKVDKRVEPKSCDKTHTCPPCPAPEFEGGPSVFLFPPKPKDTLMISRTPEVTCVVVAVSHEDPEVKFNWYVDGVEVHNAKTKPREEQYNSTYRVVSVLTVLHQDWLNGKEYKCKVSNKALPAPIEKTISKAKGQPREPQVYTLPPSREEMTKNQVSLTCLVKGFYPSDIAVEWESNGQPENNYKTTPPVLDSDGSFFLYSRLTVDKSRWQQGNVFSCSVMHEALHNHYTQKSLSLSPGK
light: SYVLTQPPSVSVAPGQTARITCGGNNIGSKSVHWYQQKPGQAPVLVVYDDNDRPSGLPERFSGSNSGNTATLTISRVEAGDEADYYCQVWDSSSDHVVFGGGTKLTVLGQPKAAPSVTLFPPSSEELQANKATLVCLISDFYPGAVTVAWKADSSPVKAGVETTTPSKQSNNKYAASSYLSLTPEQWKSHRSYSCQVTHEGSTVEKTVAPTECS
modifications: not checked

Reference: US20200239579A1
